Assay results published in the Human Domainome abundance scans (Beltran et al. 2025).
± gives the uncertainty stated by the source.

B1: Zinc finger MYM-type protein 6, residues 427 to 504; numbered along this chain, O95789 (parent)
chain: KLKCQHCNHLFATKPELLFYKGKMFLFCGKNCSDEYKKKNKVVAMCDYCKLQKIIKETVRFSGVDKPFCSEVCKFLSA

Variants of: B1
Experiment: abundance fitness (aPCA) (normalised: wild type 0, dead -1); higher = more abundant; growth selection in yeast, the domain comes from the species named
Details: Homo sapiens
For KLKCQHCNHLFATKPELLFYKGKMFLFCGKNCSDEYKKKNKVVRMCDYCKLQKIIKETVRFSGVDKPFCSEVCKFLSA [A44R], the abundance fitness was -0.495 ± 0.1. Variant KLKCQHCNHLFATKPELLFYKGKMFLFCGKNCSDEYKKKNKVVEMCDYCKLQKIIKETVRFSGVDKPFCSEVCKFLSA [A44E] has an abundance fitness of -0.112 ± 0.16. KLKCQHCNHLFATKPELLFYKGKMFLFCGKNCSDEYKKKNKVVWMCDYCKLQKIIKETVRFSGVDKPFCSEVCKFLSA [A44W] gave an abundance fitness of -0.558 ± 0.28. Work on KLKCQHCNHLFATKPELLFYKGKMFLFCGKNCSDEYKKKNKVVVMCDYCKLQKIIKETVRFSGVDKPFCSEVCKFLSA [A44V] yielded an abundance fitness of -0.319 ± 0.19. Variant KLKCQHCNHLFATKPELLFYKGKMFLFCGKNCSDEYKKKNKVVSMCDYCKLQKIIKETVRFSGVDKPFCSEVCKFLSA [A44S] has an abundance fitness of -0.282 ± 0.12. Work on KLKCQHCNHLFATKPELLFYKGKMFLFCGKNCSDEYKKKNKVVYMCDYCKLQKIIKETVRFSGVDKPFCSEVCKFLSA [A44Y] yielded an abundance fitness of -1.28 ± 0.26. With KLKCQHCNHLFATKPELLFYKGKMFLFCGKNCSDEYKKKNKVVGMCDYCKLQKIIKETVRFSGVDKPFCSEVCKFLSA [A44G] the abundance fitness was -0.132 ± 0.076. KLKCQHCNHLFATKPELLFYKGKMFLFCGKNCSDEYKKKNKVVMMCDYCKLQKIIKETVRFSGVDKPFCSEVCKFLSA [A44M] gave an abundance fitness of 0.39 ± 0.28. Variant KLKCQHCNHLFATKPELLFYKGKMFLFCGKNCSDEYKKKNKVVTMCDYCKLQKIIKETVRFSGVDKPFCSEVCKFLSA [A44T] has an abundance fitness of -0.629 ± 0.28. For KLKCQHCNHLFATKPELLFYKGKMFLFCGKNCSDEYKKKNKVVPMCDYCKLQKIIKETVRFSGVDKPFCSEVCKFLSA [A44P], the abundance fitness was -0.604 ± 0.28. Variant KLKCQHCNHLFATKPELLFYKGKMFLFCGKNCSDEYKKKNKVVQMCDYCKLQKIIKETVRFSGVDKPFCSEVCKFLSA [A44Q] has an abundance fitness of 0.054 ± 0.21. Variant KLKCQHCNHLFATKPELLFYKGKMFLFCGKNCSDEYKKKNKVVKMCDYCKLQKIIKETVRFSGVDKPFCSEVCKFLSA [A44K] has an abundance fitness of 0.117 ± 0.14. In the case of KLKCQHCNHLFATKPELLFYKGKMFLFCGKNCSDEYKKKPKVVAMCDYCKLQKIIKETVRFSGVDKPFCSEVCKFLSA [N40P], the abundance fitness is reported as -0.172 ± 0.04. Work on KLKCQHCNHLFATKPELLFYKGKMFLFCGKNCSDEYKKKSKVVAMCDYCKLQKIIKETVRFSGVDKPFCSEVCKFLSA [N40S] yielded an abundance fitness of 0.049 ± 0.053. Variant KLKCQHCNHLFATKPELLFYKGKMFLFCGKNCSDEYKKKYKVVAMCDYCKLQKIIKETVRFSGVDKPFCSEVCKFLSA [N40Y] has an abundance fitness of -0.24 ± 0.095. KLKCQHCNHLFATKPELLFYKGKMFLFCGKNCSDEYKKKVKVVAMCDYCKLQKIIKETVRFSGVDKPFCSEVCKFLSA [N40V] showed an abundance fitness of -0.03 ± 0.051. Work on KLKCQHCNHLFATKPELLFYKGKMFLFCGKNCSDEYKKKTKVVAMCDYCKLQKIIKETVRFSGVDKPFCSEVCKFLSA [N40T] yielded an abundance fitness of -0.014 ± 0.18. KLKCQHCNHLFATKPELLFYKGKMFLFCGKNCSDEYKKKRKVVAMCDYCKLQKIIKETVRFSGVDKPFCSEVCKFLSA [N40R] gave an abundance fitness of -0.045 ± 0.06. Variant KLKCQHCNHLFATKPELLFYKGKMFLFCGKNCSDEYKKKLKVVAMCDYCKLQKIIKETVRFSGVDKPFCSEVCKFLSA [N40L] has an abundance fitness of -0.191 ± 0.077. KLKCQHCNHLFATKPELLFYKGKMFLFCGKNCSDEYKKKNKVVACCDYCKLQKIIKETVRFSGVDKPFCSEVCKFLSA [M45C] showed an abundance fitness of -0.407 ± 0.26. KLKCQHCNHLFATKPELLFYKGKMFLFCGKNCSDEYKKKNKVVAHCDYCKLQKIIKETVRFSGVDKPFCSEVCKFLSA [M45H] showed an abundance fitness of -0.345 ± 0.36. Work on KLKCQHCNHLFATKPELLFYKGKMFLFCGKNCSDEYKKKNKVVAGCDYCKLQKIIKETVRFSGVDKPFCSEVCKFLSA [M45G] yielded an abundance fitness of -0.502 ± 0.085. KLKCQHCNHLFATKPELLFYKGKMFLFCGKNCSDEYKKKNKVVAACDYCKLQKIIKETVRFSGVDKPFCSEVCKFLSA [M45A] showed an abundance fitness of 0.039 ± 0.089. For KLKCQHCNHLFATKPELLFYKGKMFLFCGKNCSDEYKKKNKVVAECDYCKLQKIIKETVRFSGVDKPFCSEVCKFLSA [M45E], the abundance fitness was -0.051 ± 0.13. Variant KLKCQHCNHLFATKPELLFYKGKMFLFCGKNCSDEYKKKNKVKAMCDYCKLQKIIKETVRFSGVDKPFCSEVCKFLSA [V43K] has an abundance fitness of 0.542 ± 0.26. In the case of KLKCQHCNHLFATKPELLFYKGKMFLFCGKNCSDEYKKKNKVWAMCDYCKLQKIIKETVRFSGVDKPFCSEVCKFLSA [V43W], the abundance fitness is reported as -0.416 ± 0.27. With KLKCQHCNHLFATKPELLFYKGKMFLFCGKNCSDEYKKKNKVAAMCDYCKLQKIIKETVRFSGVDKPFCSEVCKFLSA [V43A] the abundance fitness was -0.423 ± 0.19. KLKCQHCNHLFATKPELLFYKGKMFLFCGKNCSDEYKKKNKVRAMCDYCKLQKIIKETVRFSGVDKPFCSEVCKFLSA [V43R] gave an abundance fitness of -0.224 ± 0.13. Work on KLKCQHCNHLFATKPELLFYKGKMFLFCGKNCSDEYKKKNKVNAMCDYCKLQKIIKETVRFSGVDKPFCSEVCKFLSA [V43N] yielded an abundance fitness of 0.239 ± 0.17. Work on KLKCQHCNHLFATKPELLFYKGKMFLFCGKNCSDEYKKKNKVDAMCDYCKLQKIIKETVRFSGVDKPFCSEVCKFLSA [V43D] yielded an abundance fitness of -0.271 ± 0.37. KLKCQHCNHLFATKPELLFYKGKMFLFCGKNCSDEYKKKNKVEAMCDYCKLQKIIKETVRFSGVDKPFCSEVCKFLSA [V43E] showed an abundance fitness of -0.064 ± 0.33. KLKCQHCNHLFATKPELLFYKGKMFLFCGKNCSDEYKKKNKVGAMCDYCKLQKIIKETVRFSGVDKPFCSEVCKFLSA [V43G] gave an abundance fitness of -0.224 ± 0.094. For KLKCQHCNHLFATKPELLFYKGKMFLFCGKNCSDEYKKKNKVHAMCDYCKLQKIIKETVRFSGVDKPFCSEVCKFLSA [V43H], the abundance fitness was -0.763 ± 0.22. KLKCQHCNHLFATKPELLFYKGKMFLFCGKNCSDEYKKKNKVLAMCDYCKLQKIIKETVRFSGVDKPFCSEVCKFLSA [V43L] gave an abundance fitness of -0.7 ± 0.33. KLKCQHCNHLFATKPELLFYKGKMFLFCGKNCSDEYKKKNKVMAMCDYCKLQKIIKETVRFSGVDKPFCSEVCKFLSA [V43M] gave an abundance fitness of 0.55 ± 0.12.
